Measurements reported in publication PMC2635752.

What was measured:
[1] = target: growth-associated protein GAP-43 (mouse (endogenous in N1E-115)) (UniProt P06837); assay: cross-linking + co-IP; 1 mM DSP added to living [35S]-labeled differentiated N1E-115 cells (15 min, room temperature, KRH); lysis in SDS, then NP-40 lysis buffer; 100,000 × g supernatant; monoclonal anti-GAP-43 (clone 91E12) and protein G plus agarose; crosslinks cleaved; two-dimensional gel, fluorography; spots cut out and counted, calmodulin cpm divided by 9/4
Sequence of UniProt P06837 (P06837 whole entry): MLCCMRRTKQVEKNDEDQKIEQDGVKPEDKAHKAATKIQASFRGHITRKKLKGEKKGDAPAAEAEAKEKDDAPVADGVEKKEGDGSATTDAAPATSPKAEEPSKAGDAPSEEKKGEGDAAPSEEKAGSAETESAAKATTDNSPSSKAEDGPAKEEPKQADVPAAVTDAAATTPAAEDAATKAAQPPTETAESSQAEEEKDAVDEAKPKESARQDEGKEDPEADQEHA

[2] = target: growth-associated protein GAP-43 (mouse (endogenous in N1E-115)) (UniProt P06837); assay: cross-linking + co-IP; cells lysed in 1% NP-40 substitute buffer first; 1 mM DSP added to the low-speed supernatant (15 min, room temperature); glycine and SDS added; 100,000 × g supernatant; monoclonal anti-GAP-43; two-dimensional gel; spots counted, calmodulin cpm divided by 9/4

Substance: calmodulin (from UniProt P0DP26 1-149) (natural protein)
- calmodulin as percent of the GAP-43 in the immunoprecipitate [1]: 14%
- percent of the total GAP-43 crosslinked to calmodulin [1]: 25%
- radioactivity of calmodulin in the anti-GAP-43 immunoprecipitate (divided by 9/4) [1]: 278 cpm
- calmodulin as percent of the GAP-43 in the immunoprecipitate [2]: 39%
- radioactivity of calmodulin in the anti-GAP-43 immunoprecipitate (divided by 9/4) [2]: 643 cpm
